# Laboratory results reported in PMC4072685, “Galactose Oxidase from Fusarium oxysporum - Expression in E. coli and P. pastoris and Biochemical Characterization” (PLoS ONE, 2014).
# How the values were obtained:
# [1] = system: CO[C@@H]1O[C@H](CO)[C@H](O)[C@H](O)[C@H]1O; test: purified protein; conditions: apparent constant, co-substrate O2 (air), 20 mM potassium phosphate pH 7.0, 30°C, Cu2+-activated enzyme
# [2] = system: CO[C@H]1O[C@H](CO)[C@H](O)[C@H](O)[C@H]1O; test: purified protein; conditions: apparent constant, co-substrate O2 (air), 20 mM potassium phosphate pH 7.0, 30°C, Cu2+-activated enzyme
# [3] = system: OC[C@H]1O[C@H](OC[C@H]2O[C@H](O[C@]3(CO)O[C@H](CO)[C@@H](O)[C@@H]3O)[C@H](O)[C@@H](O)[C@@H]2O)[C@H](O)[C@@H](O)[C@H]1O; test: purified protein; conditions: apparent constant, co-substrate O2 (air), 20 mM potassium phosphate pH 7.0, 30°C, Cu2+-activated enzyme
# [4] = molecular target: T1, GalOx (galactose 6-oxidase from Fusarium oxysporum G12) (Fusarium oxysporum, UniProt V5NQ89); test: ABTS/horseradish peroxidase coupled assay, […] nm, Michaelis-Menten fit; conditions: apparent constant; co-substrate O2 (air); 20 mM potassium phosphate pH 7.0, 30°C; Cu2+-activated enzyme
# T1 construct: gene gao
# T1 sequence (V5NQ89 40-681 limits assumed): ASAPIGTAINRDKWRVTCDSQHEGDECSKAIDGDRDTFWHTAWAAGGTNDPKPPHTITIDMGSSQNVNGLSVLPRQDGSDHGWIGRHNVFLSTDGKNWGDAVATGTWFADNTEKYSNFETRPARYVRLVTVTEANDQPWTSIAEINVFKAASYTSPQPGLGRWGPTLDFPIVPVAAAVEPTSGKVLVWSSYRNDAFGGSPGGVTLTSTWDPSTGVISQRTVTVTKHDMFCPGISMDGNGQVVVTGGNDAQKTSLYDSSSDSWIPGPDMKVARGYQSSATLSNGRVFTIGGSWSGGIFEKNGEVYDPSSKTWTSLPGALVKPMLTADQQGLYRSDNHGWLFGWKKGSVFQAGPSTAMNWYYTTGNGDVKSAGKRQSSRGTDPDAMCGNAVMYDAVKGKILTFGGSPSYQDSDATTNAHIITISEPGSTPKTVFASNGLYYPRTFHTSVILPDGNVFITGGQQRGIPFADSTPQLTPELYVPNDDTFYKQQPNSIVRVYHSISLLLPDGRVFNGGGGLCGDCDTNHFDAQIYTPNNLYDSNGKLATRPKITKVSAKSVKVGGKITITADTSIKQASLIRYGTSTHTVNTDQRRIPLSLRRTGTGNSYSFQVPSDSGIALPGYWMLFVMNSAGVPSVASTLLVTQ
Molecule,Km [1],Vmax [1],kcat [1],kcat/Km [1],Km [2],Vmax [2],kcat [2],kcat/Km [2],Km [3],Vmax [3],kcat [3],kcat/Km [3],Km [4]
GalOx (galactose 6-oxidase from Fusarium oxysporum G12) (Fusarium oxysporum),45 mM,81 µmol/min/mg,99 s⁻¹,2200 M⁻¹ s⁻¹,41 mM,47 µmol/min/mg,57 s⁻¹,1400 M⁻¹ s⁻¹,23 mM,23 µmol/min/mg,28 s⁻¹,1200 M⁻¹ s⁻¹,–
OC[C@H]1OC(O)[C@H](O)[C@@H](O)[C@H]1O (stereo partly drawn) [D-galactose],–,–,–,–,–,–,–,–,–,–,–,–,47 mM
